Data taken from paper PMC9535758 (EMBO Reports, 2022).

Target: T1, Human recombinant His-tagged PALB2 (human, UniProt Q86YC2 1-1186)
T1 sequence: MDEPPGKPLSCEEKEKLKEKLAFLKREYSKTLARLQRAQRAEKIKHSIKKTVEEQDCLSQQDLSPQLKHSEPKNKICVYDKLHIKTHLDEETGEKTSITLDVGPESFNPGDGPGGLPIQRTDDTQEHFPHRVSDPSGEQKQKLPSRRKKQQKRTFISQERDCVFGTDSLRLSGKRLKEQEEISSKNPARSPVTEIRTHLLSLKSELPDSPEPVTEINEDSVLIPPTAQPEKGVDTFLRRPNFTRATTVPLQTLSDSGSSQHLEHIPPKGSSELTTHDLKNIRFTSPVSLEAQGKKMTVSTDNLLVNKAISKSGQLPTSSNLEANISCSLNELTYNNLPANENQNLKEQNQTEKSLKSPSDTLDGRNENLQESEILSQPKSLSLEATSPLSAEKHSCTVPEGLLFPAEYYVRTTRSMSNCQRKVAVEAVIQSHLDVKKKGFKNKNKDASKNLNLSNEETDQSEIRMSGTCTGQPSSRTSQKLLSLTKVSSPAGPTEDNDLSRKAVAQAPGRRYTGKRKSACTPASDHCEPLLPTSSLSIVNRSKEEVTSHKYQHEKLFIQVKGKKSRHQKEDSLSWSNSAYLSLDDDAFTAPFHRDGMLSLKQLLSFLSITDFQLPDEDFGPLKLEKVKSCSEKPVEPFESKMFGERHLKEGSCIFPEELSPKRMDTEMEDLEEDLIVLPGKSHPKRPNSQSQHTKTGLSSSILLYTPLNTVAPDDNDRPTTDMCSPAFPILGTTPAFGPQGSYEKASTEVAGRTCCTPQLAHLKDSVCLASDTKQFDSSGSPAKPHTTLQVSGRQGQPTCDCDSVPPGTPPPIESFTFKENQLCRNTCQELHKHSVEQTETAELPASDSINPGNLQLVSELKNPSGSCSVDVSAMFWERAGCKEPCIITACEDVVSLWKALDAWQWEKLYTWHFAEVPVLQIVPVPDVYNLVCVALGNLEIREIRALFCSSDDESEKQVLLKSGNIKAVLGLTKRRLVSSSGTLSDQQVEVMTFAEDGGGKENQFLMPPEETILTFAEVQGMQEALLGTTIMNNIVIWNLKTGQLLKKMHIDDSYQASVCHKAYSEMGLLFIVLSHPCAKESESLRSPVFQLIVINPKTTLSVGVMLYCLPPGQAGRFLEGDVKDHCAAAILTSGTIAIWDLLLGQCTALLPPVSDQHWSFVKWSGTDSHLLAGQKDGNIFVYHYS
Assay: pull-down

Question: Does MPIGSKERPTFFEIFKTRCNKADLGPISLNWFEELSSEAP (domain or fragment) [BRCA2_(1-40)HA-His] bind?
Answer: Result: binds
